Experimental data reported in PMC2556353, “Identification of direct regulatory targets of the transcription factor Sox10 based on function and conservation”.

B1: SOD3 mutated probe (MT) (dsDNA)
DNA 1: GAAGAGGCAGACTGGTCTCT
DNA 2: AGAGACCAGTCTGCCTCTTC
B2: SOD3 probe (WT) (dsDNA)
DNA 1: GAAGAGGCACAATGGTCTCT
DNA 2: ACCATTGTGCCTCTTC

Assays:
GST-SOX10 HMG [1] = molecular target: T1, GST-SOX10 HMG (mouse, UniProt Q04888 80-185); assay: competition; unlabeled excess against labeled WT SOD3 probe; did not effectively compete; 10 mM HEPES pH 8.0, 5% glycerol, 50 mM NaCl, 5 mM MgCl2, 2 mM DTT, 0.1 mM EDTA, 4 ug BSA, 2 ug poly(dIdC) in 35 ul; 25 min at room temperature; 5% PAGE in 1x TBE; conditions: protein: recombinant; tags: N-terminal GST (pGEX-4T-1); blunt
GST-SOX10 HMG [2] = molecular target: T1, GST-SOX10 HMG; assay: EMSA; specific unlabeled probe abrogates the complex; 10 mM HEPES pH 8.0, 5% glycerol, 50 mM NaCl, 5 mM MgCl2, 2 mM DTT, 0.1 mM EDTA, 4 ug BSA, 2 ug poly(dIdC) in 35 ul; 25 min at room temperature; 5% PAGE in 1x TBE; conditions: protein: recombinant; tags: N-terminal GST (pGEX-4T-1); label: 32P end label (probe); 3' overhang 4 nt on strand 1 as printed (20-mer/16-mer)

T1 sequence (Q04888 80-185): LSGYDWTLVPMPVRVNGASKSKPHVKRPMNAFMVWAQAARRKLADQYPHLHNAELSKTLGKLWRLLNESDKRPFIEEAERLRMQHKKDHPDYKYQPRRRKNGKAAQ

Binder	binding result (GST-SOX10 HMG [1])	binding result (GST-SOX10 HMG [2])
B1	no binding	–
B2	–	binds
